According to patent publication US20230407373A1 (priority 2020, published 2023):

System: gRNA of HCoV-OC43
Type: binding
Conditions: type n_48_v: 48 hours post-infection; for target (spectral count, OC43 Probe I RNP capture): infected cells, unweighted spectral count; for background (spectral count, no-probe control): no-probe control on infected cells

B1: MSN (protein, UniProt P26038 2-577, looked up)
Moesin: PKTISVRVTTMDAELEFAIQPNTTGKQLFDQVVKTIGLREVWFFGLQYQDTKGFSTWLKLNKKVTAQDVRKESPLLFKFRAKFYPEDVSEELIQDITQRLFFLQVKEGILNDDIYCPPETAVLLASYAVQSKYGDFNKEVHKSGYLAGDKLLPQRVLEQHKLNKDQWEERIQVWHEEHRGMLREDAVLEYLKIAQDLEMYGVNYFSIKNKKGSELWLGVDALGLNIYEQNDRLTPKIGFPWSEIRNISFNDKKFVIKPIDKKAPDFVFYAPRLRINKRILALCMGNHELYMRRRKPDTIEVQQMKAQAREEKHQKQMERAMLENEKKKREMAEKEKEKIEREKEELMERLKQIEEQTKKAQQELEEQTRRALELEQERKRAQSEAEKLAKERQEAEEAKEALLQASRDQKKTQEQLALEMAELTARISQLEMARQKKESEAVEWQQKAQMVQEDLEKTRAELKTAMSTPHVAEPAENEQDEQDENGAEASADLRADAMAKDRSEEERTTEAEKNERVQKHLKALTSELANARDESKKTANDMIHAENMRLGRDKYKTLRQIRQGNTKQRIDEFESM
target (spectral count, OC43 Probe I RNP capture): 5
background (spectral count, no-probe control): 1

B2: ATXN2 ? (protein, UniProt Q99700 1-1313, looked up)
Ataxin-2: MRSAAAAPRSPAVATESRRFAAARWPGWRSLQRPARRSGRGGGGAAPGPYPSAAPPPPGPGPPPSRQSSPPSASDCFGSNGNGGGAFRPGSRRLLGLGGPPRPFVVLLLPLASPGAPPAAPTRASPLGARASPPRSGVSLARPAPGCPRPACEPVYGPLTMSLKPQQQQQQQQQQQQQQQQQQQQQQQPPPAAANVRKPGGSGLLASPAAAPSPSSSSVSSSSATAPSSVVAATSGGGRPGLGRGRNSNKGLPQSTISFDGIYANMRMVHILTSVVGSKCEVQVKNGGIYEGVFKTYSPKCDLVLDAAHEKSTESSSGPKREEIMESILFKCSDFVVVQFKDMDSSYAKRDAFTDSAISAKVNGEHKEKDLEPWDAGELTANEELEALENDVSNGWDPNDMFRYNEENYGVVSTYDSSLSSYTVPLERDNSEEFLKREARANQLAEEIESSAQYKARVALENDDRSEEEKYTAVQRNSSEREGHSINTRENKYIPPGQRNREVISWGSGRQNSPRMGQPGSGSMPSRSTSHTSDFNPNSGSDQRVVNGGVPWPSPCPSPSSRPPSRYQSGPNSLPPRAATPTRPPSRPPSRPSRPPSHPSAHGSPAPVSTMPKRMSSEGPPRMSPKAQRHPRNHRVSAGRGSISSGLEFVSHNPPSEAATPPVARTSPSGGTWSSVVSGVPRLSPKTHRPRSPRQNSIGNTPSGPVLASPQAGIIPTEAVAMPIPAASPTPASPASNRAVTPSSEAKDSRLQDQRQNSPAGNKENIKPNETSPSFSKAENKGISPVVSEHRKQIDDLKKFKNDFRLQPSSTSESMDQLLNKNREGEKSRDLIKDKIEPSAKDSFIENSSSNCTSGSSKPNSPSISPSILSNTEHKRGPEVTSQGVQTSSPACKQEKDDKEEKKDAAEQVRKSTLNPNAKEFNPRSFSQPKPSTTPTSPRPQAQPSPSMVGHQQPTPVYTQPVCFAPNMMYPVPVSPGVQPLYPIPMTPMPVNQAKTYRAVPNMPQQRQDQHHQSAMMHPASAAGPPIAATPPAYSTQYVAYSPQQFPNQPLVQHVPHYQSQHPHVYSPVIQGNARMMAPPTHAQPGLVSSSATQYGAHEQTHAMYACPKLPYNKETSPSFYFAISTGSLAQQYAHPNATLHPHTPHPQPSATPTGQQQSQHGGSHPAPSPVQHHQHQAAQALHLASPQQQSAIYHAGLAPTPPSMTPASNTQSPQNSFPAAQQTVFTIHPSHVQPAYTNPPHMAHVPQAHVQSGMVPSHPTAHAPMMLMTTQPPGGPQAALAQSALQPIPVSTTAHFPYMTHPSVQAHHQQQL
target (spectral count, OC43 Probe I RNP capture): 12
background (spectral count, no-probe control): 1
